How the values were obtained:
[1] = molecular target: cdH5-0 (supernatant of dH5-0 after 10 minutes centrifugation at 16,000-18,000*g) (influenza A virus H5N1 strain A/Vietnam/1203/04); experiment: ELISA, coated H5 form; scaled
[2] = molecular target: dH5-I (cdH5-0 heat-cycled at pH 7) (influenza A virus H5N1 strain A/Vietnam/1203/04) (UniProt Q8QPL1); experiment: ELISA, coated H5 form; scaled
[3] = molecular target: dH5-II (cdH5-0 heat-cycled at pH 2, back to pH 7) (influenza A virus H5N1 strain A/Vietnam/1203/04) (UniProt Q8QPL1); experiment: ELISA, coated H5 form; scaled
[4] = molecular target: dH5-III (cdH5-0 incubated about 16 h at 47.5 C) (influenza A virus H5N1 strain A/Vietnam/1203/04) (UniProt Q8QPL1); experiment: ELISA, coated H5 form; scaled
[5] = molecular target: fdH5-0 (ultrafiltrated dH5-0: flow-through of cdH5-0 through a 1,000 kDa cut-off filter) (influenza A virus H5N1 strain A/Vietnam/1203/04); experiment: ELISA, coated H5 form; scaled
[6] = molecular target: cross-beta nOVA: ovalbumin (chicken egg-white albumin) dissolved at 1 mg/ml in PBS (chicken) (UniProt P01012); experiment: ELISA, immobilized OVA form
[7] = molecular target: dOVA-1: ovalbumin 5.2 mg/ml in HBS, acidified with HCl, 40 minutes at 37 C, neutralized (chicken) (UniProt P01012); experiment: ELISA, immobilized OVA form
[8] = molecular target: dOVA-2: ovalbumin 1 mg/ml in PBS, five heat cycles 30 to 85 C (chicken) (UniProt P01012); experiment: ELISA, immobilized OVA form
[9] = molecular target: dOVA-3: ovalbumin 1 mg/ml in PBS, about 16 h at 75 C (chicken) (UniProt P01012); experiment: ELISA, immobilized OVA form
[10] = molecular target: cross-beta nOVA: ovalbumin (chicken egg-white albumin) dissolved at 1 mg/ml in PBS (chicken) (UniProt P01012); experiment: ELISA, immobilized OVA; normalized to nOVA
[11] = molecular target: cdH5-0 (supernatant of dH5-0 after 10 minutes centrifugation at 16,000-18,000*g) (influenza A virus H5N1 strain A/Vietnam/1203/04); experiment: ELISA, immobilized H5; normalized to cdH5-0
[12] = molecular target: dH5-I (cdH5-0 heat-cycled at pH 7) (influenza A virus H5N1 strain A/Vietnam/1203/04) (UniProt Q8QPL1); experiment: ELISA, immobilized H5; normalized to cdH5-0
[13] = molecular target: fdH5-0 (ultrafiltrated dH5-0: flow-through of cdH5-0 through a 1,000 kDa cut-off filter) (influenza A virus H5N1 strain A/Vietnam/1203/04); experiment: ELISA, immobilized H5; normalized to cdH5-0
[14] = molecular target: non-treated H5 (nH5) of H5N1 strain A/Vietnam/1203/04 (Protein Sciences) (influenza A virus H5N1 strain A/Vietnam/1203/04); experiment: ELISA, coated nH5, antibody 1:2000
[15] = molecular target: cdH5-0 (supernatant of dH5-0 after 10 minutes centrifugation at 16,000-18,000*g) (influenza A virus H5N1 strain A/Vietnam/1203/04); experiment: ELISA, coated H5 form, tPA series with excess e-amino caproic acid
[16] = molecular target: fdH5-0 (ultrafiltrated dH5-0: flow-through of cdH5-0 through a 1,000 kDa cut-off filter) (influenza A virus H5N1 strain A/Vietnam/1203/04); experiment: as above

| relative affinity kD [7] [a.u.] | Substance | relative affinity kD [1] [a.u.] | relative affinity kD [2] [a.u.] | relative affinity kD [3] [a.u.] | relative affinity kD [4] [a.u.] | relative affinity kD [5] [a.u.] | further results |
| --- | --- | --- | --- | --- | --- | --- | --- |
| – | HyTest clone 17C8, mouse monoclonal anti-H5 antibody | 100 | 51 | 34 | 68 | 128 | – |
| 127 | mouse HYB 099-09 (IgG1) anti-OVA monoclonal antibody | – | – | – | – | – | relative affinity kD [6]: 71.2 a.u.; relative affinity kD [8]: 85.1 a.u.; relative affinity kD [9]: 164 a.u. |
| – | Rockland anti-H5 A/VN/1203/04 mouse monoclonal antibody, catalogue number 200-301-976 | 100 | 0 | 132 | 127 | 105 | – |
| 44 | Sigma C6534 anti-OVA antibody | – | – | – | – | – | relative affinity kD [6]: 84.9 a.u.; relative affinity kD [8]: 221 a.u.; relative affinity kD [9]: 287 a.u. |
| 154 | mouse HYB 099-02 (IgG1) anti-OVA monoclonal antibody | – | – | – | – | – | relative affinity kD [6]: 103 a.u.; relative affinity kD [8]: 118 a.u.; relative affinity kD [9]: 154 a.u. |
| – | Rockland anti-H5 A/VN/1203/04 mouse monoclonal antibody, catalogue number 200-301-978 | 100 | 115 | 31 | 112 | 107 | – |
| – | Rockland anti-H5 A/VN/1203/04 mouse monoclonal antibody, catalogue number 200-301-979 | 100 | 125 | 83 | 126 | 97 | – |
| 20.8 | monoclonal anti-OVA IgG (A6075, Sigma) (antibody) | – | – | – | – | – | – |
| – | HyTest IgG2a clone 15A6, mouse monoclonal anti-H5 antibody | 100 | 105 | 31 | 76 | 204 | – |
| – | HyTest IgG2a clone 8D2, mouse monoclonal anti-H5 antibody | 100 | 34 | 36 | 72 | 125 | – |
| – | fourth and fifth finger domain of fibronectin (Fn F4-5), with C-terminal FLAG-tag (from UniProt P02751 183-275) | – | – | – | – | – | Normalized affinity, kD (%) [10]: 100%; Normalized affinity, kD (%) [11]: 100%; Normalized affinity, kD (%) [12]: 0%; Normalized affinity, kD (%) [13]: 69% |
| 115 | mouse HYB 099-01 (IgG1) anti-OVA monoclonal antibody | – | – | – | – | – | relative affinity kD [6]: 98.5 a.u.; relative affinity kD [8]: 129 a.u.; relative affinity kD [9]: 80.9 a.u. |
| – | Rockland anti-H5 A/VN/1203/04 mouse monoclonal antibody, catalogue number 200-301-975 | 100 | 47 | 79 | 78 | 103 | ELISA signal [14]: 1.5 |
| – | Rockland anti-H5 A/VN/1203/04 mouse monoclonal antibody, catalogue number 200-301-977 | 100 | 0 | 0 | 35 | 93 | – |
| – | tissue type plasminogen activator (tPA; Actilyse, Boehringer-Ingelheim) (from UniProt P00750 36-562) (enzyme) | – | – | – | – | – | Bmax [15]: 0.36; Bmax [16]: 0.37 |
